Source: patent publication US20260234738A1 (Regeneron, published 2026)
Changes are numbered by the printed parent chain. Values joined by “and” are separate entries in the source; they are usually repeats but may differ in a detail not shown here. Identical values can stand only once.

B1: mAb10989 (antibody, V domains shown)
VH: QVQLVQSGAEVKKPGASVKVSCKASGYIFTGYYMHWVRQAPGQGLEWMGWINPNSGGANYAQKFQGRVTLTRDTSITTVYMELSRLRFDDTAVYYCARGSRYDWNQNNWFDPWGQGTLVTVSS
VL: QSALTQPASVSGSPGQSITISCTGTSSDVGTYNYVSWYQQHPGKAPKLMIFDVSNRPSGVSDRFSGSKSGNTASLTISGLQAEDEADYYCSSFTTSSTVVFGGGTKLTVLG
B2: mAb10914 (antibody, V domains shown)
VH: EVQLVESGGGLVQPGGSLRLSCAASGLIVSRNYMIWVRQAPGKGLEWVSVIYSGGSTFYADSVKGRFTISRHNSKNTLYLQMNSLRAEDTAVYYCARDLGTGGMDVWGQGTTVTVSS
VL: DIQLTQSPSFLSASVGDRVTITCWASQGISSYLAWYQQKPGKAPKLLIYAASTLQSGVPSRFSGSGSGTEFTLTISSLQPEDFATYYCQQLNSYPLTFGGGTKVEIKR
B3: mAb11006 (antibody, V domains shown)
VH: EVQLVESGGGLVQPGGSLRLSCAASGFIVSRNYMSWVRQAPGKGLEWVSVIYSGGSTFYADSVKGRFTISRHNSKNTLYLQMNSLKAEDTAVYYCARELRGYFDYWGQGTLVTVSS
VL: B2 VL with Q90L, L96Y, G100Q, V104L
B4: mAb11008 (antibody, V domains shown)
VH: EVQLVESGGGLVQPGGSLRLSCAASGFTVSSNYMTWVRQAPGKGLEWVSVIYSGGSTFYADSVKGRFTISRHNSENTLYLQMNSLRAEDTAVYYCARDLAAAGTDYWGQGALVTVSS
VL: B2 VL with E81D, Q90H, P95L, L96Y, G100Q, V104L
B5: mAb10936 (antibody, V domains shown)
VH: QVQLVESGGGVVQPGRSLRLSCAASGFTFRNYGMHWVRQAPGKGLEWVSVIWYDGSNRYYADSVKGRFTISRDTSKNTLYLQMNSLRAEDTAVYYCARDPPITGTTGGDAFDIWGQGTMVTVSS
VL: not shown
B6: mAb10932 (antibody, V domains shown)
VH: EVQLVESGGGLVQSGGSLRLSCAASGLTVSSNYMSWVRQAPGKGLEWVSVIYSGGSTFYSDSVKGRFTISRHNSKNTLYLQMNSLRAEDTAVYYCARARGDAFDIWGQGTMVTVSS
VL: not shown
B7: mAb10986 (antibody, V domains shown)
VH: EVQLVESGGGLVQPGGSLRLSCAASEFTVSSNYMSWVRQAPGKGLEWVSVIYSGGSTFYADSVKGRFTISRDNSKNTLYLQMNSLRAEDTAVYYCARALPYGDLHFDYWGQGTLVTVSS
VL: QSVLTQPPSVSGAPGQRVTISCTGSSSNIGTGYDVHWYQQLPGTAPKLLIYGNTNRPSGVPDRFSGSKSGTSASLAITGLQAEDEADYYCQSYDSSLSDSYVFGTGTKVTVLG
B8: mAb10986 (antibody, V domains shown)
VH: B7 VH
VL: B7 VL
B9: mAb10998 (antibody, V domains shown)
VH: EVQLVESGGGLVHPGGSLRLSCAASGLTVSSNYMSWVRQAPGKGLEWVSVIYSGGSTYYADSVKGRFTISRHNSKNTLFLQMNSLRAEDTAVYYCARDRPITGTTLDVWGQGTTVTVSS
VL: DIQMTQSPSSLFASVGDRVTITCRASQSISSYLNWYQQKPGKAPKLLIYAASSLQSGVPSRFSGSGSGTDFTLTISSLQPEDFAFYYCQQTYSTPPITFGQGTRLEIKR
B10: mAb10915 (antibody, V domains shown)
VH: B3 VH with I28T, R31S, S35N, K86R, A87P, E98D, R100G
VL: not shown
B11: mAb10937 (antibody, V domains shown)
VH: QITLKESGPTLVKPTQTLTLTCTFSGFSLSTNVVGVGWIRQPPGKALEWLALIYWNDDKRYSPSLKSRLTITKDTSKNQVVLTMTNMDPVDTATYYCAHGPTGDYFDYWGQGTLVTVSS
VL: not shown
B12: mAb10920 (antibody, V domains shown)
VH: QVQLVESGGGVVQPGRSLRLSCAASGFTFSYYGMHWVRQAPGKGLEWVAVIWYDGSNKFYADSVKGRFTISRDNSKNTLYLQMNSLRAEDTAVYYCAAARPGYYYGMDVWGQGTTVTVSS
VL: DIQMTQSPSSLSASVGDRVTITCRASQGISNYLAWFQQKPGKAPNSLIYAASSLQRGVPSKFSGSGSGTDFTLTISSLQPEDFATYYCQQYNSYPRTFGQGTKVEIKR
B13: mAb10921 (antibody, V domains shown)
VH: EVQLVESGGGLVQPGGSLRLSCAASGITVSSNYMSWVRQAPGKGLEWVSVIYSGGSTFYADSVKGRFTISRHNSKNTLYLQMNSLRAEDTAVYYCARERNFDAFDIWGQGTMVTVSS
VL: DIQMTQSPSSVSASVGDRVTITCRASQGISSWLAWYQQKPGKAPKLLIYAASSLQSGVPSRFSGSGSGTDFTLTISSLQPEDFATYYCQQANSFPLFTFGPGTKVDIKR
B14: mAb11010 (antibody, V domains shown)
VH: QVQLVESGGGVVQPGRSLRLSCAASGFTFSSYGMHWVRQAPGKGLEWVAVISYDGSYKYYADSVKGRFTISRDNSKNTLYLQMNSLRAEDTAVYYCAIDGGTVTTIFDYWGQGTLVTVSS
VL: not shown
B15: mAb10923 (antibody, V domains shown)
VH: QVQLVQSGAEVKKPGASVKVSCKASGYTFINYYIHWVRQAPGQGLEWMGWINPNSGGTNYAQKFQGRVTMTRDTSISTAYMELSRLRSDDTAVYYCAIITIFGVVTWFDPWGQGTLVTVSS
VL: not shown
B16: mAb10934 (antibody, V domains shown)
VH: not shown
VL: DIQMTQSPSSLSASVGDRVTITCQASQDIWNYINWYQQKPGKAPKLLIYDASNLKTGVPSRFSGSGSGTDFTFTISSLQPEDIATYYCQQHDDLPPTFGQGTKVEIKR
B17: mAb10935 (antibody, V domains shown)
VH: EVQLVESGGGLVQPGGSLRLSCAASGFTVSSNYMSWVRQAPGKGLEWVSLIYSGGSTYYADSVKGRFTISRHNSKNTLYLQMNSLRSEDTAVYYCARVPLGDYYYGMDVWGQGTTVTVSS
VL: B16 VL with W30N, N31K, I33L, K55E, H91S, D93N, P96L, Q100G
B18: mAb10913 (antibody, V domains shown)
VH: EVQLVESGGGLVQPGGSLRLSCAASGFTFRNYEMNWVRQAPGKGLEWVSYITSSGSTMYYADSVKGRFTISRDNAKNSLYLQMNSLRAEDTAVYYCARDGFYYYYAMDVWGQGTTVTVSS
VL: QSVLTQPPSVSAAPGQKVTISCSGSSSNIGNNYVSWYQQLPGTAPKLLIYDNNKRPSGIPDRFSGSKSGTSATLGITGLQTGDEADYYCGTWDSSLSVGRVFGTGTKVTVLG

Experiments:
[1] = molecular target: SARS-COV-2 Spike protein receptor binding domain (amino acids Arg319-Phe541) expressed with the Fc p (SARS-CoV-2)
[2] = molecular target: Bt-SARS-CoV-2 Spike Protein (RBD) (R319-F541).mFc (SARS-CoV-2); experiment: Luminex beads, supernatant
[3] = molecular target: SARS-CoV-2 Spike Protein (RBD) (R319-F541).mFc (SARS-CoV-2); experiment: Luminex beads, supernatant
[4] = molecular target: SARS-CoV-2 Spike Protein (RBD) (R319-F541).hFc (SARS-CoV-2); experiment: Luminex beads, supernatant

Row | Binder | IC50 [1] | MFI [2] [MFI] | MFI [3] [MFI] | MFI [4] [MFI]
1 | B1 | 0.0591 nM and 0.0428 nM | – | – | –
2 | B2 | – | 16000 | 30700 | 30500
3 | B3 | 0.22 nM | – | – | –
4 | B4 | 1.49 nM | – | – | –
5 | B5 | – | 21600 | 33700 | 33900
6 | B6 | – | 17700 | 30600 | 30600
7 | B7 | 0.0754 nM | – | – | –
8 | B8 | – | 15900 | 28400 | –
9 | B9 | 4.3 nM | – | – | –
10 | B10 | – | 20100 | 31800 | 32400
11 | B11 | – | 19700 | 34200 | 34600
12 | B12 | – | 20300 | 36400 | 36800
13 | B13 | – | 11300 | 19400 | 22300
14 | B14 | 0.147 nM | – | – | –
15 | B15 | – | 19600 | 37400 | 37800
16 | B16 | – | 21200 | 34300 | 35800
17 | B17 | – | 19300 | 35900 | 35600
18 | B18 | – | 16600 | 33000 | 31900
